Consider 1 protein from PMC4773402, “Comparison of the aggregation of homologous β2-microglobulin variants reveals protein solubility as a key determinant of amyloid formation” (Journal of Molecular Biology, 2016).

The data set concerns the molecule itself. The data set is described as follows: AUC; sedimentation velocity, 25 °C, 48,000 rpm, 50 μM protein, pH 2.5 buffer with 0.3 M NaCl, absorbance at 280 nm, SEDFIT.

B1: mouse β2-microglobulin (natural protein, UniProt P01887 21-119, looked up)
chain: IQKTPQIQVYSRHPPENGKPNILNCYVTQFHPPHIEIQMLKNGKKIPKVEMSDMSFSKDWSFYILAHTEFTPTETDTYACRVKHASMAEPKTVYWDRDM
notes: β2-microglobulin, mouse; In the AUC the protein was acid-unfolded at pH 2.5; also called mβ2m; source: expressed and prepared as described previously [47]; purified (anion exchange at pH 8.5, gel filtration), lyophilised
As to B1, the binding result was “binds”.
